The values below come from article PMC11472053, “Structural basis of DNA recognition by BEN domain proteins reveals a role for oligomerization in unmethylated DNA selection by BANP” (Nucleic Acids Research, 2024).

For one data set, the target named is T1, BANP BEN WT (human) (UniProt Q8N9N5).
T1 sequence: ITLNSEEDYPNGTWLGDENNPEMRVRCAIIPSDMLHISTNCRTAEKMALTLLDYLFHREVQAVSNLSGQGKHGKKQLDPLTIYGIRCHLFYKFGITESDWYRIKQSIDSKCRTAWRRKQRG
The experiment in a line: ITC. Conditions: 5-methyl-C at positions 5 and 7 of each strand (fully methylated); ITC: 20 mM Tris pH 7.5, 200 mM NaCl, 2 mM beta-mercaptoethanol, 20 C; EMSA: 20 mM Tris pH 7.0, 200 mM NaCl, 2 mM DTT, 4 C, 1.2% agarose in TAE. (Mobility shift assays separate free from complexed probe on a gel.)

For another data set, the target named is T2, BANP CC-BEN (ΔDBD) (human, UniProt Q8N9N5 1-360).
T2 sequence: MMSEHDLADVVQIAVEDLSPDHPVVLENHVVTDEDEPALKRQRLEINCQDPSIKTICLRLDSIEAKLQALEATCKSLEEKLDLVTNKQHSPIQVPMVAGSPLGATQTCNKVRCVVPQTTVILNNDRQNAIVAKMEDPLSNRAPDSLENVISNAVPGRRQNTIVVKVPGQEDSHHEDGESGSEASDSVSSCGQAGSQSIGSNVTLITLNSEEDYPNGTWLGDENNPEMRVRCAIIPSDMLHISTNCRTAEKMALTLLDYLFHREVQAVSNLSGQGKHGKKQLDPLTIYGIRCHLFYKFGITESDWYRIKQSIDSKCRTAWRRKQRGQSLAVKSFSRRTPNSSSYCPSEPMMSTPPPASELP
The data set can be described thus: ITC; ITC: 20 mM Tris pH 7.5, 200 mM NaCl, 2 mM beta-mercaptoethanol, 20 C; EMSA: 20 mM Tris pH 7.0, 200 mM NaCl, 2 mM DTT, 4 C, 1.2% agarose in TAE. The settings on record: protein: recombinant; tags: His-SUMO or His-MBP, cleaved; blunt, self-complementary.

Another data set addresses T3, BANP BEN-DBD (human, UniProt Q8N9N5 205-519).
T3 sequence: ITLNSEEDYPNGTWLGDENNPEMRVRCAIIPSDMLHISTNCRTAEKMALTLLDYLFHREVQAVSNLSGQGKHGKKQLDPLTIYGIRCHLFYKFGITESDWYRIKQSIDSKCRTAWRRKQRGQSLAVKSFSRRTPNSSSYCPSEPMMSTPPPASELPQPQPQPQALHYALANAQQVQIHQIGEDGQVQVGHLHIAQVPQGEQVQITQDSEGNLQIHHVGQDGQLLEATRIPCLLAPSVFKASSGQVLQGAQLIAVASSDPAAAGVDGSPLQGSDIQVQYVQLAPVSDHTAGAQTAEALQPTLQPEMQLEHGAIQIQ
Described as above. The settings on record: protein: recombinant; tags: His-SUMO or His-MBP, cleaved; blunt, self-complementary.

Another data set deals with T4, BANP full-length WT (human, UniProt Q8N9N5 1-519).
T4 sequence: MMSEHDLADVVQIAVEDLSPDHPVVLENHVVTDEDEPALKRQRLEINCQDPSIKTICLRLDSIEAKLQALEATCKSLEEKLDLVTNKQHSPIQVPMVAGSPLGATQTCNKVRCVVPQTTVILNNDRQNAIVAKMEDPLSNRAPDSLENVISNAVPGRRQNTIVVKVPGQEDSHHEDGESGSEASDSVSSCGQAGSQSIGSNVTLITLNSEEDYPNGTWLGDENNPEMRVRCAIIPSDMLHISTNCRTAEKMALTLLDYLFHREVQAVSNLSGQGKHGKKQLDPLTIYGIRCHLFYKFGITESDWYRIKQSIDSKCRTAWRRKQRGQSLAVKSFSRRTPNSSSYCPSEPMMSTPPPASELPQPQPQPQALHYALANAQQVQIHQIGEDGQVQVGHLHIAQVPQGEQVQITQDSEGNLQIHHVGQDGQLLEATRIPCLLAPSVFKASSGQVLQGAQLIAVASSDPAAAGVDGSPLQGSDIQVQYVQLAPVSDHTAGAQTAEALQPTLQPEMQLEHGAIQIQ
Described as above. The settings on record: protein: recombinant; tags: His-SUMO or His-MBP, cleaved; chain copies: 4; blunt, self-complementary.

The target of the next data set is T5, BANP ΔCC (human, UniProt Q8N9N5 90-519).
T5 sequence: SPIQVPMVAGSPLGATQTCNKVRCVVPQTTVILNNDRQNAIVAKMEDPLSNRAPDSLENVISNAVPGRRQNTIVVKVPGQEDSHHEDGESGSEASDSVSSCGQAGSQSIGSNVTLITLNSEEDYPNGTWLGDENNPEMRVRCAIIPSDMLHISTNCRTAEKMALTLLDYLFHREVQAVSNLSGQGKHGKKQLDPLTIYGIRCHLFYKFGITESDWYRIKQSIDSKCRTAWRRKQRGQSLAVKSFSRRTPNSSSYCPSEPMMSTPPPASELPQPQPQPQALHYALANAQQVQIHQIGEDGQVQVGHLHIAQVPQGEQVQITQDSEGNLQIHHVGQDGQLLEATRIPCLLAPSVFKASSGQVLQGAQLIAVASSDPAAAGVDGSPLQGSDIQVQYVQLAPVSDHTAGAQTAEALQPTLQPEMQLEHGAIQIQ
Described as above. Conditions: protein: recombinant; tags: His-SUMO or His-MBP, cleaved; blunt, self-complementary.

Data set [1] concerns the molecule itself. The data set can be described thus: cross-linking; purified full-length BANP in 20 mM HEPES pH 7.5, 200 mM NaCl, 2 mM DTT; 0.06% glutaraldehyde, on ice 10 min, quenched with Tris; then Superdex 200 10/300 GL and SDS-PAGE of the fractions.
Data set [2] concerns the target T6, NACC1 BEN WT (human, UniProt Q96RE7 341-477).
T6 sequence: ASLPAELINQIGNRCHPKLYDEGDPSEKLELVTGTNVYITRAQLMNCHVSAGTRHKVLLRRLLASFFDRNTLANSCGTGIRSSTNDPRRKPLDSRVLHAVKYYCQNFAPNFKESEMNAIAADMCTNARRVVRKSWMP
The experiment in a line: EMSA; ITC: 20 mM Tris pH 7.5, 200 mM NaCl, 2 mM beta-mercaptoethanol, 20 C; EMSA: 20 mM Tris pH 7.0, 200 mM NaCl, 2 mM DTT, 4 C, 1.2% agarose in TAE. Conditions: protein: recombinant; tags: His-SUMO or His-MBP, cleaved; blunt.

Data set [3] addresses T7, BANP BEN WT (human, UniProt Q8N9N5 205-325).
T7 sequence: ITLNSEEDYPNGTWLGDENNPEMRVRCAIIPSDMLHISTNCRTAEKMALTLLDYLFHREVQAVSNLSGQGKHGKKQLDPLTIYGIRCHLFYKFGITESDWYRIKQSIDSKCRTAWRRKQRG
The description is as above. Conditions: protein: recombinant; tags: His-SUMO or His-MBP, cleaved; chain copies: 2; blunt.

Data set [4] addresses T7, BANP BEN WT. The data set can be described thus: crystal structure; 2.6 A; PDB assignment from column order; ITC: 20 mM Tris pH 7.5, 200 mM NaCl, 2 mM beta-mercaptoethanol, 20 C; EMSA: 20 mM Tris pH 7.0, 200 mM NaCl, 2 mM DTT, 4 C, 1.2% agarose in TAE. Conditions: protein: recombinant; tags: His-SUMO or His-MBP, cleaved; chain copies: 2; 12 bp, 5' overhang 1 nt (C) each strand.

The target of data set [5] is T6, NACC1 BEN WT. The data set can be described thus: crystal structure; 2.3 A; PDB assignment from column order; ITC: 20 mM Tris pH 7.5, 200 mM NaCl, 2 mM beta-mercaptoethanol, 20 C; EMSA: 20 mM Tris pH 7.0, 200 mM NaCl, 2 mM DTT, 4 C, 1.2% agarose in TAE. The settings on record: protein: recombinant; tags: His-SUMO or His-MBP, cleaved; 10 bp, 5' overhang 1 nt (T) each strand.

“ATCTCGCGAGAT (double strand) [12-mCGmCG]” had a Kd in the data set with BANP BEN WT (human) of 5.7 µM.

B1: 12-mCGmCG (dsDNA)
DNA 1: ATCTCGCGAGAT
DNA 2: ATCTCGCGAGAT
modifications: 5-methyl-C at positions 5 and 7 of each strand (fully methylated)
For the molecule B1, the binding result in the data set with BANP CC-BEN (ΔDBD), with BANP BEN-DBD, in the data set with BANP full-length WT and with BANP ΔCC was “no binding” throughout.

B2: full-length BANP (natural protein, human, UniProt Q8N9N5 1-519, looked up)
chain: MMSEHDLADVVQIAVEDLSPDHPVVLENHVVTDEDEPALKRQRLEINCQDPSIKTICLRLDSIEAKLQALEATCKSLEEKLDLVTNKQHSPIQVPMVAGSPLGATQTCNKVRCVVPQTTVILNNDRQNAIVAKMEDPLSNRAPDSLENVISNAVPGRRQNTIVVKVPGQEDSHHEDGESGSEASDSVSSCGQAGSQSIGSNVTLITLNSEEDYPNGTWLGDENNPEMRVRCAIIPSDMLHISTNCRTAEKMALTLLDYLFHREVQAVSNLSGQGKHGKKQLDPLTIYGIRCHLFYKFGITESDWYRIKQSIDSKCRTAWRRKQRGQSLAVKSFSRRTPNSSSYCPSEPMMSTPPPASELPQPQPQPQALHYALANAQQVQIHQIGEDGQVQVGHLHIAQVPQGEQVQITQDSEGNLQIHHVGQDGQLLEATRIPCLLAPSVFKASSGQVLQGAQLIAVASSDPAAAGVDGSPLQGSDIQVQYVQLAPVSDHTAGAQTAEALQPTLQPEMQLEHGAIQIQ
notes: BANP, human, full length; also called SMAR1; source: E. coli Rosetta (DE3), purified (nickel column, HiTrap Q, gel filtration)
Take B2: in data set [1], the “stoichiometry N” value came to 4.

B3: 12-AT (dsDNA)
DNA 1: TTTTATATATAA
DNA 2: TTATATATAAAA
In the case of B3, the binding result in the data set with NACC1 BEN WT [2] and in the data set with BANP BEN WT [3] was “no binding” each time.

B4: BANP crystal DNA (dsDNA)
DNA 1: CATCTCGCGAGAT
DNA 2: CATCTCGCGAGAT
Turning to B4, in the data set with BANP BEN WT [4], the binding result is reported as “binds”.

B5: NACC1 crystal DNA (dsDNA)
DNA 1: TTTACATGTAA
DNA 2: TTTACATGTAA
As to B5, in the data set with NACC1 BEN WT [5], the binding result was “binds”.

As a reminder, the Kd is the constant that tells how readily two partners part at equilibrium. Read a high Kd as lower affinity. For orientation: stoichiometry N means a count of units in the complex or per binding partner.
